Experimental data: JP2006523083A (dated 2006)

B1: Ab198 (antibody, V domains shown)
VH: QVQLVESGGGVVQPGRSLRLSCVASGFTFSSYGMHWVRQAPGKGLEWVAVISYDGSNKYYADSVKGRFTISRDNSKNTLYLQMNSLRVEDTAVYYCARDHGGRYVYDYGMDVWGQGTTVTVSS
VL: DIQMTQSPSSVSASIGDRVSITCRASQGISSWLAWYQQKPGKAPTLLIYAASTLQRGVPSRFSGSGSGTDFTLTISSLQPEDFATYFCQQANSFPFTFGPGTKVDIK
notes: These were not used; also called AB-ABT2-XG2-198; ABT2-XG2-198
B2: Ab12 (antibody, V domains shown)
VH: QVQLQESGPGLVKPSETLSLTCTVSGASISSYYWSWIRQPPGKGLEWIGYIYYSGSTNYNPSLKSRVTISVDTSKNQFSLKLRSVTAADTAVYYCARERLGIGDYWGQGTLVTVSS
VL: DIQLTQSPSSLSASVGDRVTITCRASQGIRNDLGWYQQKPGKAPKRLIYAASSLQSGVPSRFSGSGSGTEFTLTISSLQPEDFATYYCLQHNTYPPTFGQGTKVEIK
notes: Human antibody (XenoMouse XG2); also called AB-ABT2-XG2-012; ABT2-XG2-012

Tests used:
[1] = biological target: ビオチン化EpoR(Abbott CHO細胞由来 ref.#RB69084:4) (UniProt P19235); assay: immunofluorescence microscopy on EpoR-coated sheep red cells, MAB307 plus Alexa488 anti-mouse IgG Fc
[2] = biological target: T1, 可溶性EPO受容体(sEPOR)(R&D Systems Cat.#307-ER/LF) (human, UniProt P19235 25-250); assay: BIAcore (antibody immobilised, soluble human EPO receptor injected), as paragraph 65 attributes it; values not given
T1 construct: extracellular domain; The ELISA paragraph names only 'soluble EPO receptor' with the catalogue number; also called sEPOR; 固相化エリスロポエチン受容体
T1 sequence (looked up): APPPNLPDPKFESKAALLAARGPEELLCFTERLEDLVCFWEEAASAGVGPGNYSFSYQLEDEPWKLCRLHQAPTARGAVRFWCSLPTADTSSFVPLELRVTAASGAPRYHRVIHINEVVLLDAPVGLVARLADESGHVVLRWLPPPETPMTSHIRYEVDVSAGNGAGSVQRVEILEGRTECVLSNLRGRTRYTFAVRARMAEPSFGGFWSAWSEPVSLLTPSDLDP

全長組換えヒトEPO受容体(CHO細胞に発現) = biological target: T2, 全長組換えヒトEPO受容体(CHO細胞に発現) (human, UniProt P19235 25-508); assay: competition with 125I-EPO on CHO cells expressing full-length human EPO receptor
T2 construct: whole, on cells; also called 組換えEPO受容体を発現するCHO細胞; エリスロポエチン受容体
T2 sequence (looked up): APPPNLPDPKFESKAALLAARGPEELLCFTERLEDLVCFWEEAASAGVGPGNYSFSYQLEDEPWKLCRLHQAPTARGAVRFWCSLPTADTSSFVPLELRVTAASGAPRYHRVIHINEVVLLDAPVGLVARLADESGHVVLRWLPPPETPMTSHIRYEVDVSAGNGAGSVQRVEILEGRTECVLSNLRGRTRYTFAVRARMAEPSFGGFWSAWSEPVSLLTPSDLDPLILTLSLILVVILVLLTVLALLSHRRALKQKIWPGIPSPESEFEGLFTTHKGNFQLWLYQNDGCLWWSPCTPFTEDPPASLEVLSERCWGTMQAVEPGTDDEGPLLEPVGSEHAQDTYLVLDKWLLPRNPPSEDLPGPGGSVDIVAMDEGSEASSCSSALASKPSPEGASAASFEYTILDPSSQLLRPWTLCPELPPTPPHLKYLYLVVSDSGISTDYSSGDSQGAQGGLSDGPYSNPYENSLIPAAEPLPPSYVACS

[3] = biological target: ヒトエリスロポエチン受容体(UT-7/Epo細胞・F36E細胞上) (human), P19235; assay: cell-based or functional assay
ペプチドSE−3 = biological target: T3, ペプチドSE−3 (human); assay: ELISA on plate-coated SE-3 peptide (5 μg/ml), anti-human IgG (Fc)-HRP
T3 construct: also called SE-3; SE-3ペプチド
T3 peptide: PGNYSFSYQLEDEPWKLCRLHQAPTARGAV

Molecule	immunofluorescence score (0-4 scale) [1]	binding result [2]	binding result (全長組換えヒトEPO受容体(CHO細胞に発現))	F36E細胞の増殖:EPO対照との最大応答の差(モル当量基準) [3]	binding result (ペプチドSE−3)
マウス抗EpoR抗体(R&D Systems Cat.# MAB307) (antibody)	4 of 4				
B1		binds	binds		
B2		binds	binds	10 倍	no binding (tested: 5 μg/ml Ab12)
